Data: patent US20060234308

Key:
[1] = test system: T1, Arg-Arg-Ile-Ser-Lys-Asp-Asn-Pro-Asp-Tyr-Gln-Gln-Asp-BAl-Cys-NH2
T1 sequence: RRISKDNPDYQQDXC

[2] = test system: T2, Cys-BAl-Lys-Arg-Arg-Glu-Ile-Leu-Ser-Arg-Arg-Pro-Ser-Tyr-Arg-NH2
T2 sequence: CXKRREILSRRPSYR

[3] = test system: T3, Cys-BAl-Gly-Arg-Thr-Gly-Arg-Arg-Asn-Ser-Ile-NH2
T3 sequence: CXGRTGRRNSI

[4] = test system: 13-mer peptides of the scan through the myelin basic protein (MBP) from bos taurus
[5] = test system: T4, Dpr(Aoa)-Leu-Arg-Arg-Ala-Ser-Leu-Gly-NH2
T4 sequence: LRRASLG

[6] = test system: T5, Cys-βAla-Leu-Arg-Arg-Ala-Ser-Leu-Gly-NH2
T5 sequence: CXLRRASLG

[7] = test system: T6, Leu-Arg-Arg-Ala-Ser-Leu-Gly-thioamide
T6 sequence: LRRASLG

[8] = test system: T7, Cys-BAl-Ala-Lys-Arg-Arg-Arg-Leu-Ser-Ser-Leu-Arg-Ala-NH2
T7 sequence: CXAKRRRLSSLRA

[9] = test system: T8, Cys-BAl-Pro-Lys-Asp-Pro-Ser-Gln-Arg-Arg-Arg-NH2
T8 sequence: CXPKDPSQRRR

[10] = test system: T9, Cys-BAl-Gln-Lys-Arg-Pro-Ser-Gln-Arg-Ser-Lys-Tyr-Leu-NH2
T9 sequence: CXQKRPSQRSKYL

[11] = test system: T10, Cys-BAl-Lys-Lys-Arg-Phe-Ser-Phe-Lys-Lys-Ser-Phe-Lys-Leu-NH2
T10 sequence: CXKKRFSFKKSFKL

[12] = test system: T11, Cys-BAl-Pro-Leu-Ser-Arg-Thr-Leu-Ser-Val-Ala-Ala-Lys-Lys-NH2
T11 sequence: CXPLSRTLSVAAKK

[13] = test system: other peptides not described as substrates for protein kinase C

| Substance | phosphorylation on peptide array (32P, PhosphorImager) [1] | phosphorylation on peptide array (32P, PhosphorImager; higher signal in all three subarrays) [2] | phosphorylation on peptide array (32P, PhosphorImager; higher signal in all three subarrays) [3] | phosphorylation on MBP peptide scan array (32P, PhosphorImager; higher signal in all three subarrays) [4] | phosphorylation of 960 spots on glass (32P, PhosphorImager; FIG. 7) [5] | phosphorylation on peptide array (32P, PhosphorImager; higher signal in all three subarrays) [6] | time course of 32P incorporation on modified glass (FIG. 3) [6] | phosphorylation of 11760 spots on glass (32P, PhosphorImager; FIG. 6) [7] | phosphorylation on peptide array (32P, PhosphorImager; higher signal in all three subarrays) [8] | phosphorylation on peptide array (32P, PhosphorImager; higher signal in all three subarrays) [9] | phosphorylation on peptide array (32P, PhosphorImager; higher signal in all three subarrays) [10] | phosphorylation on peptide array (32P, PhosphorImager; higher signal in all three subarrays) [11] | phosphorylation on peptide array (32P, PhosphorImager; higher signal in all three subarrays) [12] | phosphorylation on peptide array (32P, PhosphorImager; higher signal in all three subarrays) [13] |
| --- | --- | --- | --- | --- | --- | --- | --- | --- | --- | --- | --- | --- | --- | --- |
| Protein kinase A | The peptide 83 is probably not phosphorylated because of the excessive N-terminal localisation of the substrate motif | with one exception, all the peptides on the modified glass surface are recognised and phosphorylated by protein kinase A which carries two arginine residues in position -2 and -3 (N-terminal) to the serine | with one exception, all the peptides on the modified glass surface are recognised and phosphorylated by protein kinase A which carries two arginine residues in position -2 and -3 (N-terminal) to the serine | most of the peptides on the modified glass surface are recognised and phosphorylated by protein kinase A which was also found in the experiment carried out in solution | the linking of the immobilised kinase substrate is tolerated by the protein kinase A | with one exception, all the peptides on the modified glass surface are recognised and phosphorylated by protein kinase A which carries two arginine residues in position -2 and -3 (N-terminal) to the serine | a clear time dependence can be identified for the kinase-mediated incorporation of radioactivity into the substrate amino acid sequence | the linking of the immobilised kinase substrate is tolerated by the protein kinase A | with one exception, all the peptides on the modified glass surface are recognised and phosphorylated by protein kinase A which carries two arginine residues in position -2 and -3 (N-terminal) to the serine | – | – | – | – | – |
| Protein kinase C | – | – | – | – | – | – | – | – | the peptides known as protein kinase C substrates (substrate peptides Nos. 3, 23, 27, 41, 43) ... are recognised and phosphorylated by this kinase on the modified glass surface | the peptides known as protein kinase C substrates (substrate peptides Nos. 3, 23, 27, 41, 43) ... are recognised and phosphorylated by this kinase on the modified glass surface | the peptides known as protein kinase C substrates (substrate peptides Nos. 3, 23, 27, 41, 43) ... are recognised and phosphorylated by this kinase on the modified glass surface | the peptides known as protein kinase C substrates (substrate peptides Nos. 3, 23, 27, 41, 43) ... are recognised and phosphorylated by this kinase on the modified glass surface | the peptides known as protein kinase C substrates (substrate peptides Nos. 3, 23, 27, 41, 43) ... are recognised and phosphorylated by this kinase on the modified glass surface | other peptides not described as substrates for protein kinase C are recognised and phosphorylated by this kinase on the modified glass surface |
